Assay results published in article PMC8315899 (Nature structural & molecular biology, 2021).

Biological target: the molecule itself
Experiment: cryo-EM structure

B1: STRN3 (striatin 3), recombinant (natural protein, human, UniProt Q13033-2 1-713, looked up)
chain: MDELAGGGGGGPGMAAPPRQQQGPGGNLGLSPGGNGAAGGGGPPASEGAGPAAGPELSRPQQYTIPGILHYIQHEWARFEMERAHWEVERAELQARIAFLQGERKGQENLKKDLVRRIKMLEYALKQERAKYHKLKYGTELNQGDLKMPTFESEETKDTEAPTAPQNSQLTWKQGRQLLRQYLQEVGYTDTILDVRSQRVRSLLGLSNSEPNGSVETKNLEQILNGGESPKQKGQEIKRSSGDVLETFNFLENADDSDEDEENDMIEGIPEGKDKHRMNKHKIGNEGLAADLTDDPDTEEALKEFDFLVTAEDGEGAGEARSSGDGTEWAEPITFPSGGGKSFIMGSDDVLLSVLGLGDLADLTVTNDADYSYDLPANKDAFRKTWNPKYTLRSHFDGVRALAFHPVEPVLVTASEDHTLKLWNLQKTVPAKKSASLDVEPIYTFRAHIGPVLSLAISSNGEQCFSGGIDATIQWWNMPSPSVDPYDTYEPNVLAGTLVGHTDAVWGLAYSGIKNQLLSCSADGTVRLWNPQEKLPCICTYNGDKKHGIPTSVDFIGCDPAHMVTSFNTGSAVIYDLETSQSLVILSSQVDSGLQSNNHINRVVSHPTLPVTITAHEDRHIKFFDNKTGKMIHSMVAHLDAVTSLAVDPNGIYLMSGSHDCSIRLWNLDSKTCVQEITAHRKKLDESIYDVAFHSSKAYIASAGADALAKVFV
Question: For B1, which “stoichiometry N” value is on record?
Answer: 4
